According to patent US20190211099A1, “METHODS AND COMPOSITIONS FOR TREATING CANCER WITH SIGLEC-9 ACTIVITY MODULATORS” (KING'S COLLEGE LONDON, priority 2016, published 2019):

Target: Siglec-9 expressed by primary monocytes, monocyte-derived macrophages and monocytic cell lines (THP-1, U937) (human) (UniProt Q9Y336)
Assay: cell-based or functional assay

Siglec-9 expressed by primary monocytes, monocyte-derived macrophages and monocytic cell lines (THP-1, U937) (human), sequence (Q9Y336 19-463): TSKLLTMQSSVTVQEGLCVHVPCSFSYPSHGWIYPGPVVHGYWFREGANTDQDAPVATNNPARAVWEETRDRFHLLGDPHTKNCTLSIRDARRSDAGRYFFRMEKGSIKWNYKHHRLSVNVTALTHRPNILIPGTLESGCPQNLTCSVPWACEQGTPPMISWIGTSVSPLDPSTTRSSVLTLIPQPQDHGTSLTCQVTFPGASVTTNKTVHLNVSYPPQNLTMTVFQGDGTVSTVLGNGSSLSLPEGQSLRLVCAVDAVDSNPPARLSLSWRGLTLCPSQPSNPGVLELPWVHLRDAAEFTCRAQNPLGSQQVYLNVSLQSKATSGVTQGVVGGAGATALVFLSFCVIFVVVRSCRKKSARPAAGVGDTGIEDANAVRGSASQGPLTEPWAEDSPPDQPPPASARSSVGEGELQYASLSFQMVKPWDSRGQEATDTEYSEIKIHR

**Q.** With “MUC1-ST (recombinant secreted MUC1 consisting of 16 tandem repeats carrying sialylated Core-1 glycans, Ig part removed by trypsin) (from UniProt P15941 129-448) (ligand)” as the substance, how does the IDO mRNA expression in macrophages (qRT-PCR) read?
**A.** 10 to 25 fold
